Results taken from patent US20060189528A1 (EVOGENIX, published 2006).
Residue numbers refer to the chain shown, from its start. Names may count otherwise.

T1: RANKL (human, UniProt O14788 140-317, limits assumed)
T1 construct: also called Rank ligand
T1 sequence (looked up): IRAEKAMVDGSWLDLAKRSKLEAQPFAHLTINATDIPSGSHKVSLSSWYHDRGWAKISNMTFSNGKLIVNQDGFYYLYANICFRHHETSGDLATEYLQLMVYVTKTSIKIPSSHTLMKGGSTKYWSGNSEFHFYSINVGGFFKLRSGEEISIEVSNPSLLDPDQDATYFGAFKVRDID

B1: OVP I115K (Fc fusion)
chain: ETFPPKYLHYDEETSHQLLCDKCPPGTYLKQHCTAKWKTVCAPCPDHYYTDSWHTSDECLYCSPVCKELQYVKQECNRTHNRVCECKEGRYLEKEFCLKHRSCPPGFGVVQAGTPERNTVCKRCPDGFFSNETSSKAPCRKHTNCSVFGLLLTQKGNATHDNICSGNSESTQK
notes: Tested as C-terminal Fc-linked dimer with FLAG tag, from HEK 293 EBNA cells; signal peptide 1-21 processed; not shown: human Fc domain of vector pAPEX-3.Fc; C-terminal FLAG tag
B2: OVP I115A (Fc fusion)
chain: B1 chain with K94A
notes: as for B1
B3: OVP I115G (Fc fusion)
chain: B1 chain with K94G
notes: as for B1
B4: OVP I115D (Fc fusion)
chain: B1 chain with K94D
notes: as for B1
B5: OVP I115T, K51R, S167G (Fc fusion)
chain: B1 chain with K30R, K94T, S146G
notes: as for B1
B6: OVP I115M, F128L (Fc fusion)
chain: B1 chain with K94M, F107L
notes: Tested as C-terminal Fc-linked dimer with FLAG tag, from HEK 293 EBNA cells; signal peptide 1-21 processed; also called I115M plus: F128L; not shown: human Fc domain of vector pAPEX-3.Fc; C-terminal FLAG tag
B7: OVP I115V (Fc fusion)
chain: B1 chain with K94V
notes: as for B1
B8: OVP I115L (Fc fusion)
chain: B1 chain with K94L
notes: as for B1
B9: OVP I115Y (Fc fusion)
chain: B1 chain with K94Y
notes: as for B1
B10: OVP I115M, R122Q (Fc fusion)
chain: B1 chain with K94M, R101Q
notes: Tested as C-terminal Fc-linked dimer with FLAG tag, from HEK 293 EBNA cells; signal peptide 1-21 processed; also called I115M plus: R122Q; not shown: human Fc domain of vector pAPEX-3.Fc; C-terminal FLAG tag
B11: OVP I115M, F128A (Fc fusion)
chain: B1 chain with K94M, F107A
notes: Tested as C-terminal Fc-linked dimer with FLAG tag, from HEK 293 EBNA cells; signal peptide 1-21 processed; also called I115M plus: F128A; not shown: human Fc domain of vector pAPEX-3.Fc; C-terminal FLAG tag
B12: OVP I115T, K51R, R111H (Fc fusion)
chain: B1 chain with K30R, R90H, K94T
notes: as for B1
B13: OVP I115M, R122S (Fc fusion)
chain: B1 chain with K94M, R101S
notes: Tested as C-terminal Fc-linked dimer with FLAG tag, from HEK 293 EBNA cells; signal peptide 1-21 processed; also called I115M plus: R122S; not shown: human Fc domain of vector pAPEX-3.Fc; C-terminal FLAG tag
B14: OVP I115M, L40S (Fc fusion)
chain: B1 chain with L19S, K94M
notes: Tested as C-terminal Fc-linked dimer with FLAG tag, from HEK 293 EBNA cells; signal peptide 1-21 processed; also called R23; not shown: human Fc domain of vector pAPEX-3.Fc; C-terminal FLAG tag
B15: OVP N102D (Fc fusion)
chain: B1 chain with N81D, K94I
notes: as for B1
B16: OVP I115M (Fc fusion)
chain: B1 chain with K94M
notes: Ribosome display selected; tested as C-terminal Fc-linked dimer with FLAG tag, from HEK 293 EBNA cells; signal peptide 1-21 processed; also called 1R17; not shown: human Fc domain of vector pAPEX-3.Fc; C-terminal FLAG tag
B17: OVP I115R (Fc fusion)
chain: B1 chain with K94R
notes: as for B1
B18: OVP I115N (Fc fusion)
chain: B1 chain with K94N
notes: as for B1
B19: OVP I115M, F128I (Fc fusion)
chain: B1 chain with K94M, F107I
notes: Tested as C-terminal Fc-linked dimer with FLAG tag, from HEK 293 EBNA cells; signal peptide 1-21 processed; also called I115M plus: F128I; not shown: human Fc domain of vector pAPEX-3.Fc; C-terminal FLAG tag
B20: OVP I115M, F128S (Fc fusion)
chain: B1 chain with K94M, F107S
notes: Tested as C-terminal Fc-linked dimer with FLAG tag, from HEK 293 EBNA cells; signal peptide 1-21 processed; also called I115M plus: F128S; not shown: human Fc domain of vector pAPEX-3.Fc; C-terminal FLAG tag
B21: OVP I115M, R122G (Fc fusion)
chain: B1 chain with K94M, R101G
notes: Tested as C-terminal Fc-linked dimer with FLAG tag, from HEK 293 EBNA cells; signal peptide 1-21 processed; also called I115M plus: R122G; not shown: human Fc domain of vector pAPEX-3.Fc; C-terminal FLAG tag
B22: OVP I115T, K51R (Fc fusion)
chain: B1 chain with K30R, K94T
notes: as for B1
B23: OVP I115M, N139D (Fc fusion)
chain: B1 chain with K94M, N118D
notes: as for B1
B24: OVP I115M, F128T (Fc fusion)
chain: B1 chain with K94M, F107T
notes: Tested as C-terminal Fc-linked dimer with FLAG tag, from HEK 293 EBNA cells; signal peptide 1-21 processed; also called I115M plus: F128T; not shown: human Fc domain of vector pAPEX-3.Fc; C-terminal FLAG tag
B25: OVP I115W (Fc fusion)
chain: B1 chain with K94W
notes: as for B1
B26: OVP I115M, R122N (Fc fusion)
chain: B1 chain with K94M, R101N
notes: Tested as C-terminal Fc-linked dimer with FLAG tag, from HEK 293 EBNA cells; signal peptide 1-21 processed; also called I115M plus: R122N; not shown: human Fc domain of vector pAPEX-3.Fc; C-terminal FLAG tag
B27: OVP I115M, R122E (Fc fusion)
chain: B1 chain with K94M, R101E
notes: Tested as C-terminal Fc-linked dimer with FLAG tag, from HEK 293 EBNA cells; signal peptide 1-21 processed; also called I115M plus: R122E; not shown: human Fc domain of vector pAPEX-3.Fc; C-terminal FLAG tag
B28: OVP I115S (Fc fusion)
chain: B1 chain with K94S
notes: as for B1
B29: OVP I115E (Fc fusion)
chain: B1 chain with K94E
notes: as for B1
B30: OVP I115M, R122D (Fc fusion)
chain: B1 chain with K94M, R101D
notes: Tested as C-terminal Fc-linked dimer with FLAG tag, from HEK 293 EBNA cells; signal peptide 1-21 processed; also called I115M plus: R122D; not shown: human Fc domain of vector pAPEX-3.Fc; C-terminal FLAG tag

target: T2, TRAIL (human, UniProt P50591 114-281); assay: ELISA on coated TRAIL, Fc-linked dimer
T2 construct: also called TNF-related apoptosis inducing ligand; recombinant human TRAIL (R&D Systems)
Procedure: (§1) Purified mammalian-expressed OVP proteins are tested for binding to RANKL and TRAIL by ELISA. Wells are coated with RANKL at 5 μg/mL or TRAIL at 10 μg/mL in PBS O/N at 4° C., rinsed with PBS, blocked with 0.5% casein in PBS at room temp for 2 h, then rinsed again with PBS. Concentrations of OVPs to be tested are normalised to around 10 nM and then 50 μL applied to the antigen-coated wells in serial doubling dilutions over 6-7 wells for 1 h. […] All washes in between binding incubations are 3 times in PBS/0.05% Tween, then 3 times with PBS. Detection of bound OVPs is achieved with incubation of 50 μL anti-FLAG at […] for 20 min then 50 μL goat anti-mouse-peroxidase conjugate (BioRad) at 1:1500 for 20 min. TMB is used as enzyme substrate and then binding signal is measured at A_{450 nm}.

T2 sequence (P50591 114-281 limits assumed): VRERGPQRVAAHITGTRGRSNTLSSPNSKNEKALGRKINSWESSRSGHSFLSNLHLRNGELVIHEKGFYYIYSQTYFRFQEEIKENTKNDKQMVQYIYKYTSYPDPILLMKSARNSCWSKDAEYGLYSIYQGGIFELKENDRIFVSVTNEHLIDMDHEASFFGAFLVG

binding result | Binder
no binding | B1

target: T1, RANKL; assay: ELISA on coated RANKL, Fc-linked dimers; EC50 ratio to OPG(22-194).Fc wt; increase in binding (lower EC50)
Procedure: as §1

RANKL fold change cf wt [fold] | Binder
2.25 | B2
2.1 | B3
1.5 | B4
1.5 | B5
1.2 | B6
1.5 | B7
1.75 | B8
1.1 | B9
2.5 | B10
1.2 | B11
1.5 | B12
1.5 | B13
1.1 | B14
1.1 | B15
1.2 | B16

target: T2, TRAIL; assay: ELISA on coated TRAIL, Fc-linked dimers; EC50 ratio to OPG(22-194).Fc wt; reduction in binding (higher EC50); # by extrapolation
Procedure: as §1

TRAIL fold change cf wt [fold] | Binder
50 | B17
390 | B18
250 | B19
> 125 | B3
250 | B6

target: T1, RANKL; assay: ELISA on coated RANKL, Fc-linked dimers; EC50 ratio to OPG(22-194).Fc wt; printed without parentheses
Procedure: as §1

RANKL fold change cf wt [fold] | Binder
1 | B20
1 | B21

target: T2, TRAIL; assay: ELISA on coated TRAIL, Fc-linked dimers; EC50 ratio to OPG(22-194).Fc wt; printed in parentheses (reduction in binding, higher EC50)
Procedure: as §1

TRAIL fold change cf wt [fold] | Binder
0.8 | B22
1 | B15

target: T2, TRAIL; assay: ELISA on coated TRAIL, Fc-linked dimers; EC50 ratio to OPG(22-194).Fc wt; reduction in binding (higher EC50)
Procedure: as §1

TRAIL fold change cf wt [fold] | Binder
2.5 | B2
60 | B23
50 | B20
12.5 | B21
7 | B24
5 | B25
> 250 | B26
> 125 | B4
15 | B5
> 250 | B27
4 | B7
4.3 | B8
3 | B9
3 | B10
2 | B11
7.5 | B12
3.5 | B13
3.1 | B28
> 250 | B29
> 250 | B14
23 | B30
25 | B16

target: T1, RANKL; assay: ELISA on coated RANKL, Fc-linked dimers; EC50 ratio to OPG(22-194).Fc wt; reduction in binding (higher EC50)
Procedure: as §1

RANKL fold change cf wt [fold] | Binder
1.75 | B23
2.3 | B17
1.1 | B18
2.1 | B19
1.75 | B22
3.3 | B24
1.4 | B25
1.1 | B26
1.2 | B27
1.4 | B28
2.25 | B29
6 | B30
60 | B1
